Source: patent US7960115B2, “DNA binding protein” (Wright State University, priority 2001, dated 2011)

B1: DUE-B: human DNA Unwinding Element binding protein (SEQ ID NO:2), baculovirus expressed, binds the c-myc replication origin DUE (protein, listed as Homo sapiens)
chain: MKAVVQRVTRASVTVGGEQISAIGRGICVLLGISLEDTQKELEHMVRKILNLRVFEDESGKHWSKSVMDKQYEILCVSQFTLQCVLKGNKPDFHLAMPTEQAEGFYNSFLEQLRKTYRPELIKDGKFGAYMQVHIQNDGPVTIELESPAPGTATSDPKQLSKLEKQQQRKEKTRAKGPSESSKERNTPRKEDRSASSGAEGDVSSEREP

Assays:
[1] = target: T1, DUE-B binding to dsDNA derived from the DUE sequence (Homo sapiens, UniProt Q8TEA8); experiment: Fluorescence polarization assay of DUE-B binding to dsDNA
T1 construct: 6his (N); V5 (N); made in house; host or cells: baculovirus / SF9 insect cells
T1 sequence (Q8TEA8 1-209): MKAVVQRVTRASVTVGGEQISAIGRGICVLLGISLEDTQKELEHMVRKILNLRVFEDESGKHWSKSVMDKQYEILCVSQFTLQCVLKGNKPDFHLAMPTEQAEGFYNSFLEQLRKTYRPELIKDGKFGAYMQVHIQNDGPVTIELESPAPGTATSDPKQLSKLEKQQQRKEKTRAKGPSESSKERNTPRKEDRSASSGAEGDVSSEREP
Source text: Described herein is the first generation of a novel assay for determining the effects of molecules on the association of DUE-B with double stranded DNA (dsDNA). This assay uses fluorescence polarization to measure the interaction of DUE-B with dsDNA. This assay consists of 4 components: • a) a dsDNA derived from the DUE sequence:
• Both the sense and antisense strands are labeled with FITC at the 3′ end using a 6 carbon spacer. • b) Purified DUE-B. Human DUE-B tagged at the amino terminus with the 6his and V5 tags is synthesized in baculovirus and purified using Ni^2+-Sepharose™ chromatography. • c) Reaction buffer (1×): […] Tris HCl (pH 7.5), 800 mM NaCl, 10 mM EDTA, 100 mM β-mercaptoethanol, 1% (w/v) Tween-20™. • d) Fluorescence polarization plate reader (Tecan Polarion™ or other equivalent device)
A mastermix is prepared consisting of 1× reaction buffer, 2 nM labeled oligo and 0.125 or 0.250 ug DUE-B per 100 ul of mastermix. Compounds (in this case steroids) are added to the bottom of a 96 well plate. 100 ul of mastermix is added to each well and allowed to equilibrate for 30 sec. Fluorescence polarization is then measured.
In FIG. 23A, the effect of increasing concentrations of DUE-B on the polarization of dsDNA was assessed. As expected, polarization of the dsDNA becomes saturated as the DUE-B protein concentration increases. […]

[2] = ATPase activity by thin layer chromatography; type: biochemical
Method: In FIG. 11, DUE-B expressed in baculovirus infected insect cells was chromotographed as in FIG. 8. To locate the eluted DUE-B, fractions were assayed by ELISA using DUE-B antibody or 6his antibody. ATPase activity was monitored by thin layer chromatography of alternate fractions incubated with gamma-^32P-ATP. […] In FIG. 12, time courses of ATPase activity were measured for three concentrations of DUE-B protein.
Purified DUE-B (200-1000 ng) expressed in bacteria or insect cells, or cell extracts from HeLa cells (˜500 ng) or Xenopus oocytes (˜500 ng), were chromatographed on a one-meter Sephacryl™ S-200 column. Protein elution was monitored by Western blot or by ELISA using antibodies to DUE-B or the his6 tag. ATPase activity was monitored by thin layer chromatography on PEI cellulose (Patrick, S. M., et al., Biochem. Biophys. Acta 1354:279-290, 1997). RNA was isolated using an RNAeasy kit (Qiagen) and DUE-B mRNA expression was monitored by Northern blotting of total RNA electrophoresed on denaturing formaldehyde/agarose gels using a DUE-B cDNA probe labeled with alpha-^32P-dCTP by random primer extension.

[3] = system: DNA replication in Xenopus oocyte extract; experiment: Replication in Xenopus oocyte extracts; type: biochemical, Xenopus laevis

Molecule | effect on the dsDNA binding of DUE-B on retest ([1]; retest in two different concentrations of DUE-B, FIG. 24B) | increase in polarization of dsDNA by DUE-B ([1]; steroid at 10 uM, FIG. 24A) [%] | ATPase activity ([2]; baculovirus expressed DUE-B, FIG. 12) | ATP hydrolyzed ([2]; present assay conditions) | effect on DNA replication, time course ([3]; double stranded DNA preincubated in extract, DUE-B added with alpha-32P-dCTP, FIG. 18A) | effect on replication of single stranded DNA ([3]; oocyte extract, FIG. 20D) | effect on replication of sperm chromatin ([3]; preincubated 30' with the extract versus added simultaneously with sperm chromatin, FIG. 19) | effect on MCM7 loading (pre-RC formation) on chromatin ([3]; sperm chromatin, anti-MCM7 immunoblot, FIG. 20C)
C[C@]12CC[C@@H]3c4ccc(O)cc4CC[C@H]3[C@@H]1CC(O)C2O (some centres unmarked) [Steroid E2850, 1,3,5(10)-estratrien-3,16,17-triol] | stimulatory effect of E2850 was duplicated | 100 | – | – | – | – | – | –
B1 | – | – | approximately 30 fmol gamma-32P-ATP hydrolyzed | > 0.5 fmol ATP per minute per fmol protein | transiently inhibited DNA replication | does not inhibit replication of single stranded DNA | more effective at inhibiting replication | does not inhibit MCM7 loading
